Measured values as given in publication PMC10401002.

Target: endogenous human glyceraldehyde 3-phosphate dehydrogenase (GAPDH), 3xFLAG-tagged by CRISPR/Cas9 knock-in (human (endogenous in HEK293T)) (UniProt P04406)
Assay: cryo-EM structure; single-particle cryo-EM of endogenous 3xFLAG-tagged protein purified from HEK293T (anti-FLAG M2, SEC in TBS) on amine-modified graphene oxide grids; GAPDH also from cytosol and nuclei after 8 and 24 h of oxidative stress (1 mM H2O2, 10 mM L-Arg)

endogenous human glyceraldehyde 3-phosphate dehydrogenase (GAPDH), 3xFLAG-tagged by CRISPR/Cas9 knock-in, P04406 1-335 (enzyme; other documents disagree on this pair), sequence (P04406 whole entry): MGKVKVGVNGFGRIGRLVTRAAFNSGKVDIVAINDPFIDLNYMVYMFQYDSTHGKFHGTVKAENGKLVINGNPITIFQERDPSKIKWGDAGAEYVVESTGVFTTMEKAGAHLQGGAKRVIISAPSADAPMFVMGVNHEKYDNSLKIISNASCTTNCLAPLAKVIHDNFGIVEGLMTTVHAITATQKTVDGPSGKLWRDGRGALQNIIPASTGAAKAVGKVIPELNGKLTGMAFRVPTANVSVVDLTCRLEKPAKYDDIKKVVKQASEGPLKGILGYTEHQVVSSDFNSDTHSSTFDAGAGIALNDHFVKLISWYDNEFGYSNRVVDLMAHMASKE

stoichiometry N: 4
Substance: endogenous human glyceraldehyde 3-phosphate dehydrogenase (GAPDH), 3xFLAG-tagged by CRISPR/Cas9 knock-in, P04406 1-335 (enzyme; other documents disagree on this pair)
